Experiments:
[1] = target: T1, human LAP-TGFB1 Fc fusion (human); test: SPR pH 6.0, antigen-Fc captured, Fab analyte
T1 construct: also called human LAP-TGFβ1-Fc; human LAP-TGFβ-Fc isoform 1
Experimental: A Series S CM4 sensor chip (Cytiva, catalog BR100534) was immobilized with an anti-human Fc capture antibody following the kit protocol (Cytiva, catalog BR100839) on a Biacore T200 instrument with 1× HBS-EP+ (Teknova, catalog H8022). […] The binding data were double referenced by subtraction of signal from a reference (capture surface only) flow cell and the 0 nM Fab injection. Binding rate constants were determined by fitting the data with a 1:1 binding model (Cytiva Biacore T200 Evaluation software 3.0).

[2] = target: T1, human LAP-TGFB1 Fc fusion; test: SPR
[3] = target: T1, human LAP-TGFB1 Fc fusion; test: SPR pH 7.4, antigen-Fc captured, Fab analyte
[4] = target: T1, human LAP-TGFB1 Fc fusion; test: SPR pH 7.4, antigen-Fc captured, Fab analyte; remark: listed apart in the source
[5] = target: T2, human LAP-TGFB3 Fc fusion (human); test: SPR pH 7.4
T2 construct: also called human LAP-TGFβ3; LAP-TGFβ isoform 3

[6] = target: T3, human LAP-TGFB2 Fc fusion (human); test: SPR pH 7.4
T3 construct: also called human LAP-TGFβ2; LAP-TGFβ isoform 2

[7] = target: T1, human LAP-TGFB1 Fc fusion; test: SPR pH 7.4, antigen captured on Fab 54BLH
Text: A Series S C1 sensor chip (Cytiva, catalog BR100535) was immobilized with low densities of high affinity Fab 54BLH on a Biacore T200 instrument with 1×HBS-EP+(Teknova, catalog H8022). This surface served as a monovalent capture surface for a low-density layer of heterodimer human LAP-TGFβ1 complex leaving the second binding site exposed for monovalent kinetic binding analysis with both mAbs and Fabs. Immobilized flow cell 1 served as the reference and flow cells 2, 3 and 4 were used to evaluate the binding interaction between human LAP-TGFβ1 and yeast display mutant mAbs and Fabs.
Approximately 15-25 RU of human LAP-TGFβ1-Fc was captured to the Fab capture surface followed by injection of 1:3 serially diluted Fabs and mAbs from 6 nM to 0.07 nM (Fabs: 54BLH, 55BLH, 60BLH, 63BLH, 64BLH-mAbs: 69BLH, 70BLH) and 1:3 serially diluted Fab and mAbs from 60 nM to 0.74 nM (Fabs: 59BLH, 66BLH, 67BLH—mAbs: 74BLH, 75BLH, 78BLH, 79BLH, 81BLH, 82BLH) including 0 nM. The binding data was double referenced by subtraction of signal from a reference flow cell and the 0 nM injections for evaluation of Fabs and mAbs respectively. Binding rate constants were calculated/determined by fitting the data with a 1:1 binding model (Cytiva Biacore T200 Evaluation software 3.0).

[8] = target: T1, human LAP-TGFB1 Fc fusion; test: SPR pH 6.0, antigen captured on Fab 54BLH
How it was run: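 Human LAP-TGFβ1-Fc (~15-25 RU) captured on a low-density 54BLH Fab surface in HBS-EP+, leaving one epitope free for monovalent kinetics. Fabs/mAbs injected in 1:3 series, 6–0.07 nM or 60–0.74 nM plus 0 nM. Double-referenced; rate constants from 1:1 binding fit.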

T2 sequence (chain, as listed by the source limits assumed): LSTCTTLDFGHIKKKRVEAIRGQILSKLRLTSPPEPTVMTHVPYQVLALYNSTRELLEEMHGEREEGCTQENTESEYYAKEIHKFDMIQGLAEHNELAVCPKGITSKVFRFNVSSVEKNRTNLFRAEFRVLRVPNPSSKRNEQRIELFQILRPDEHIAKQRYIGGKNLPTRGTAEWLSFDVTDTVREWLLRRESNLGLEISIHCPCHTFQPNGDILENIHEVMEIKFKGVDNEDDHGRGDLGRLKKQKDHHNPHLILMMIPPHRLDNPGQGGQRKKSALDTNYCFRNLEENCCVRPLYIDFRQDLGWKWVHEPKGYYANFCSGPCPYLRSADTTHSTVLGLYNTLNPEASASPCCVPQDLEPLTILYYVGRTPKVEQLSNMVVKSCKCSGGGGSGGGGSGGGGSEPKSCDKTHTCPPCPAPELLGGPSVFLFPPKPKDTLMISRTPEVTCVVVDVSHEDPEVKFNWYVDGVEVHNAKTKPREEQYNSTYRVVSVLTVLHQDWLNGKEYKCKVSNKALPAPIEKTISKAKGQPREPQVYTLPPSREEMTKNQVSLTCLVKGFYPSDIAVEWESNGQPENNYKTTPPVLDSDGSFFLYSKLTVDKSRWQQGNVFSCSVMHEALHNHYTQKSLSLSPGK
T3 sequence (chain, as listed by the source limits assumed): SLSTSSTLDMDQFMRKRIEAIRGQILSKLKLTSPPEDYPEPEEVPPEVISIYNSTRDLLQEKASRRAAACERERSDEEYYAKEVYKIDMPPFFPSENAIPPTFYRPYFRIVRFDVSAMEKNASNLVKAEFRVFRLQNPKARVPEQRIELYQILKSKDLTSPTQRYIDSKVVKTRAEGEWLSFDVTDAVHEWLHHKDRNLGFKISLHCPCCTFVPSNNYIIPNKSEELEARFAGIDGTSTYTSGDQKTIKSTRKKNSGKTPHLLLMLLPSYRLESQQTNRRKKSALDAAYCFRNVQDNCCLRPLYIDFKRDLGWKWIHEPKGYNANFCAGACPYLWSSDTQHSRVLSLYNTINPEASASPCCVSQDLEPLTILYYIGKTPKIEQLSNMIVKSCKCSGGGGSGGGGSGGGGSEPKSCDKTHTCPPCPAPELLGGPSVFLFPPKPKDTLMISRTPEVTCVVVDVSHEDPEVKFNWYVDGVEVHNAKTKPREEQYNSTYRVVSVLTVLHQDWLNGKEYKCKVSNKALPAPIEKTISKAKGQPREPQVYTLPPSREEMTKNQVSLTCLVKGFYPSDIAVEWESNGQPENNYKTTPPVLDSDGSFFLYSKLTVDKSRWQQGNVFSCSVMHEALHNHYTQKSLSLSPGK
T1 sequence (chain, as listed by the source limits assumed): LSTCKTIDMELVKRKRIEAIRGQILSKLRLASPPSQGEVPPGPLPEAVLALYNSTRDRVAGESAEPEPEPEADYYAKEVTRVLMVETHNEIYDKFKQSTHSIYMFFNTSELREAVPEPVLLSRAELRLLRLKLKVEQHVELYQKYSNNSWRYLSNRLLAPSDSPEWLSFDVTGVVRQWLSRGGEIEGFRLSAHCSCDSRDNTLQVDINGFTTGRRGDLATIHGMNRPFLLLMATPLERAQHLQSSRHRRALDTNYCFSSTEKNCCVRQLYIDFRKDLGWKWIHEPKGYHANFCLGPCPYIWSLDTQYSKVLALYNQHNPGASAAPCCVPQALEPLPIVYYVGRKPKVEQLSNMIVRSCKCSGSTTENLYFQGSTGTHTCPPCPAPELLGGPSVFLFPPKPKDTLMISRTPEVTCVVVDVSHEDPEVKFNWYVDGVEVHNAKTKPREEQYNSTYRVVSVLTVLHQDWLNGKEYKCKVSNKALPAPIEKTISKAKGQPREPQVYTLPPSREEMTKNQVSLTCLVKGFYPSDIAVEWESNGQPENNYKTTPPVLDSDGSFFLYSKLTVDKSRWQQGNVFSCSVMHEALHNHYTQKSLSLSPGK

Row | Binder | Kd [1] [nM] | koff [1] [s⁻¹] | kon [1] [M⁻¹ s⁻¹] | Fold change in KD from pH 7.4 to pH 6 [2] [fold] | Kd [3] [nM] | koff [3] [s⁻¹] | kon [3] [M⁻¹ s⁻¹] | Fold improvement in KD [4] [fold] | Kd [4] [nM] | koff [4] [s⁻¹] | kon [4] [M⁻¹ s⁻¹] | binding result [5] | binding result [6] | Kd [7] [nM] | koff [7] [s⁻¹] | kon [7] [M⁻¹ s⁻¹] | Kd [8] [nM] | koff [8] [s⁻¹] | kon [8] [M⁻¹ s⁻¹]
1 | 64BLH (Fab, V domains shown, also called 16BLM Fab) VH: EVQLVQSGAEVKKPGASVKVSCKASGYTFTSYDMHWVRQAPGQGLEWMGRIDPQSGGIKYAQKFQGRATLTVDTSTSTAYMELSRLRSDDTAVYYCARWDYGGYFDVWGQGTLVTVSS VL: DIQMTQSPSSLSASVGDRVTITCRASQDIYNYLNWYQQKPGKAVKLLIYYTSVLETGVPSRFSGSGSGTDYTLTISSLQPEDFATYFCQQGDTLPWTFGQGTKLEIK | 0.024 | 0.000843 | 3.49e+07 | 0.3 | 0.077 | 0.0005 | 6.51e+06 | 760 | 0.077 | 0.0005 | 6.51e+06 | no binding (tested: 1000 nM Fab) | no binding (tested: 1000 nM Fab) | 0.062 | 0.000939 | 1.53e+07 | 0.182 | 0.00194 | 1.07e+07
2 | 68BLH (Fab, V domains shown, also called 20BLM Fab) VH: EVQLVQSGAEVKKPGASVKVSCKASGYTFTSYDMHWVRQAPGQGLEWMGRIDPQSGGEKYAQKFQGRATLTVDTSTSTAYMELSRLRSDDTAVYYCARYDYGGYFDVWGQGTLVTVSS VL: DIQMTQSPSSLSASVGDRVTITCRASQDIYNYLNWYQQKPGKAVKLLIYYTSRLETGVPSRFSGSGSGTDYTLTISSLQPEDFATYFCQQGDTLPWTFGQGTKLEIK | 0.508 | 0.00454 | 8.94e+06 | 1.2 | 0.438 | 0.00331 | 7.57e+06 | 134 | 0.438 | 0.00331 | 7.57e+06 | no binding (tested: 1000 nM Fab) | no binding (tested: 1000 nM Fab) | – | – | – | – | – | –

The remaining binders from weak to strong by Kd [1], led by results:

Row | Kd [1] [nM] | koff [1] [s⁻¹] | kon [1] [M⁻¹ s⁻¹] | Fold change in KD from pH 7.4 to pH 6 [2] [fold] | Kd [3] [nM] | koff [3] [s⁻¹] | kon [3] [M⁻¹ s⁻¹] | Fold improvement in KD [4] [fold] | Kd [4] [nM] | koff [4] [s⁻¹] | kon [4] [M⁻¹ s⁻¹] | binding result [5] | binding result [6] | Kd [7] [nM] | koff [7] [s⁻¹] | kon [7] [M⁻¹ s⁻¹] | Kd [8] [nM] | koff [8] [s⁻¹] | kon [8] [M⁻¹ s⁻¹] | Binder
3 | 0.105 | 0.000757 | 7.17e+06 | 1.8 | 0.059 | 0.000528 | 9.08e+06 | 992 | 0.059 | 0.000528 | 9.08e+06 | no binding (tested: 1000 nM Fab) | no binding (tested: 1000 nM Fab) | 0.125 | 0.00109 | 8.75e+06 | 0.335 | 0.00248 | 7.39e+06 | 55BLH (Fab, V domains shown, also called 07BLM Fab) VH: EVQLVQSGAEVKKPGASVKVSCKASGYTFTSYDMHWVRQAPGQGLEWMGRIDPQSGGIRYAQKFQGRATLTVDTSTSTAYMELSRLRSDDTAVYYCARWDYGGYFDVWGQGTLVTVSS VL: DIQMTQSPSSLSASVGDRVTITCRASQDIYSYLNWYQQKPGKAVKLLIYYTSNLETGVPSRFSGSGSGTDYTLTISSLQPEDFATYFCQQGDTLPWTFGQGTKLEIK
4 | 0.006 | 4.73e-05 | 7.56e+06 | 1.5 | 0.004 | 2.07e-05 | 4.96e+06 | 14600 | 0.004 | 2.07e-05 | 4.96e+06 | no binding (tested: 1000 nM Fab) | no binding (tested: 1000 nM Fab) | 0.00477 | 3.34e-05 | 7.03e+06 | 0.0217 | 0.000101 | 4.65e+06 | 54BLH (Fab, V domains shown, also called 06BLM Fab) VH: EVQLVQSGAEVKKPGASVKVSCKASGYTFTSYDMHWVRQAPGQGLEWMGRIDPQSGGIRYAQKFQGRATLTVDTSTSTAYMELSRLRSDDTAVYYCARWDYGGQFDVWGQGTLVTVSS VL: DIQMTQSPSSLSASVGDRVTITCRASQDIYNYLNWYQQKPGKAVKLLIYYTSILETGVPSRFSGSGSGTDYTLTISSLQPEDFATYFCQQGDTLPWTFGQGTKLEIK

Reference: patent US20230272056A1 (Merck Sharp & Dohme, published 2023)
